Data reported in article PMC4609988 (Scientific Reports, 2015).
Blank lines part the entries; values can stand above or below the binder they belong to.

Tests used:
[1] = biological target: the molecule itself; assay: non-reducing SDS-PAGE; proteins taken from the media of transfected HEK293 cells with streptactin sepharose, SDS-PAGE under non-reduced (NR) and reduced (R) conditions, immunoblot with anti-Ang1 antibody; disulfide-linked oligomers
[2] = biological target: T1, CMP-Ang1-2 (human); assay: negative-stain transmission electron microscopy; purified proteins on carbon-coated copper grids, stained with 0.75% uranyl formate, 120 kV; settings: both partners purified
T1 chain: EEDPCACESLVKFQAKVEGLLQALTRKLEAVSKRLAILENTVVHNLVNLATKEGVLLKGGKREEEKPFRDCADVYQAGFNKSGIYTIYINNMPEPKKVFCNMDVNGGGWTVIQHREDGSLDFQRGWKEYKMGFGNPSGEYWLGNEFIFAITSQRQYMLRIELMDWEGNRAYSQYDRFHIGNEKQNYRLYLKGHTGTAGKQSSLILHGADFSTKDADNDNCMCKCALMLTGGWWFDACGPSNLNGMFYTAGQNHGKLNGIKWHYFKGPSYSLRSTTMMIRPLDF

[3] = biological target: T2, COMP-Ang1 ( | human); assay: non-reducing SDS-PAGE; proteins taken from the media of transfected HEK293 cells with streptactin sepharose, SDS-PAGE under non-reduced (NR) and reduced (R) conditions, immunoblot with anti-Ang1 antibody; disulfide-linked oligomers; settings: both partners purified
T2 chain: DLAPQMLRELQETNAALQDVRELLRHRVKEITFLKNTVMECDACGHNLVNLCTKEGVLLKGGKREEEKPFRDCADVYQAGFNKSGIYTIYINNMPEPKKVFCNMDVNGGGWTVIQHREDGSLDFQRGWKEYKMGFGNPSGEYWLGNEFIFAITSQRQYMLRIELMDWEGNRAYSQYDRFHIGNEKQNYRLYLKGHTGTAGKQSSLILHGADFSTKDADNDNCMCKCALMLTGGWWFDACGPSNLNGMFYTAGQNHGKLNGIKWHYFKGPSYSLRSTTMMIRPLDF

[4] = biological target: GCN-Ang1 ( | human); assay: as above; settings: both partners purified
[5] = biological target: T3, Fc-Ang1 (human); assay: as above; settings: both partners purified
T3 chain: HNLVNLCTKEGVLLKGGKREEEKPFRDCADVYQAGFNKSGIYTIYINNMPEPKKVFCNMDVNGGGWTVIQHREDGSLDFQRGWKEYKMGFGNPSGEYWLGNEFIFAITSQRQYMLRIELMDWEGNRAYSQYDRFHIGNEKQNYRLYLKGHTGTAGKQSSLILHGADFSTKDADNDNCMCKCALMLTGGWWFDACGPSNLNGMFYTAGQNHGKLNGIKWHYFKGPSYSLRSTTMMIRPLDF

B1: CMP-Ang1-3 (dimeric CMP-Ang1), produced in HEK293 cells (ligand)
chain: EEDPAACESLVKFQAKVEGLLQALTRKLEAVSKRLAILENTVVHNLVNLATKEGVLLKGGKREEEKPFRDCADVYQAGFNKSGIYTIYINNMPEPKKVFCNMDVNGGGWTVIQHREDGSLDFQRGWKEYKMGFGNPSGEYWLGNEFIFAITSQRQYMLRIELMDWEGNRAYSQYDRFHIGNEKQNYRLYLKGHTGTAGKQSSLILHGADFSTKDADNDNCMCKCALMLTGGWWFDACGPSNLNGMFYTAGQNHGKLNGIKWHYFKGPSYSLRSTTMMIRPLDF
modifications: N-glycan at asparagine 106 (complex tri- (~57%) or tetra- (~25%) antennary type glycans with one or two fucose residues)
- stoichiometry N [1]: 2

B3: COMP-Ang1 (ligand)
chain: DLAPQMLRELQETNAALQDVRELLRHRVKEITFLKNTVMECDACGHNLVNLCTKEGVLLKGGKREEEKPFRDCADVYQAGFNKSGIYTIYINNMPEPKKVFCNMDVNGGGWTVIQHREDGSLDFQRGWKEYKMGFGNPSGEYWLGNEFIFAITSQRQYMLRIELMDWEGNRAYSQYDRFHIGNEKQNYRLYLKGHTGTAGKQSSLILHGADFSTKDADNDNCMCKCALMLTGGWWFDACGPSNLNGMFYTAGQNHGKLNGIKWHYFKGPSYSLRSTTMMIRPLDF
modifications: inter-chain disulfides; N-glycan at Ang1 Asn295 (construct Asn109) / inter-chain disulfides; N-glycan at Ang1 Asn295 (construct Asn109)
- stoichiometry N [3]: 5

B4: GCN-Ang1 (ligand)
chain: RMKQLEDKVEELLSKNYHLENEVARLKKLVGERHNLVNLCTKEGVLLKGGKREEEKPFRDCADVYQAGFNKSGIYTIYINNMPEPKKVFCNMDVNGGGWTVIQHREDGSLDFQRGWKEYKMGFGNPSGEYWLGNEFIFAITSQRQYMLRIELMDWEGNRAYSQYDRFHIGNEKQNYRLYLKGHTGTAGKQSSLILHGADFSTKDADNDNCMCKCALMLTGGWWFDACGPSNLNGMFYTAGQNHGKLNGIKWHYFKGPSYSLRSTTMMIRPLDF
modifications: N-glycan at Ang1 Asn295 / N-glycan at Ang1 Asn295
- stoichiometry N [4]: 2

The remaining lines, values ahead:

- stoichiometry N [2]: 3
B2: CMP-Ang1-2 (ligand)
chain: EEDPCACESLVKFQAKVEGLLQALTRKLEAVSKRLAILENTVVHNLVNLATKEGVLLKGGKREEEKPFRDCADVYQAGFNKSGIYTIYINNMPEPKKVFCNMDVNGGGWTVIQHREDGSLDFQRGWKEYKMGFGNPSGEYWLGNEFIFAITSQRQYMLRIELMDWEGNRAYSQYDRFHIGNEKQNYRLYLKGHTGTAGKQSSLILHGADFSTKDADNDNCMCKCALMLTGGWWFDACGPSNLNGMFYTAGQNHGKLNGIKWHYFKGPSYSLRSTTMMIRPLDF
modifications: inter-chain disulfides; N-glycan at Ang1 Asn295 (construct Asn106) / inter-chain disulfides; N-glycan at Ang1 Asn295 (construct Asn106)

- stoichiometry N [5]: 2
B5: Fc-Ang1 (Fc fusion)
chain: HNLVNLCTKEGVLLKGGKREEEKPFRDCADVYQAGFNKSGIYTIYINNMPEPKKVFCNMDVNGGGWTVIQHREDGSLDFQRGWKEYKMGFGNPSGEYWLGNEFIFAITSQRQYMLRIELMDWEGNRAYSQYDRFHIGNEKQNYRLYLKGHTGTAGKQSSLILHGADFSTKDADNDNCMCKCALMLTGGWWFDACGPSNLNGMFYTAGQNHGKLNGIKWHYFKGPSYSLRSTTMMIRPLDF
modifications: dimerized through N-terminal human IgG1 Fc; N-glycan at Ang1 Asn295 / dimerized through N-terminal human IgG1 Fc; N-glycan at Ang1 Asn295
